Laboratory results as given in patent publication US20260146093A1 (DREN BIO MANAGEMENT, published 2026).
Numbering of substitutions follows the chain as printed.

T1: human Dectin-1 isoform A on HEK-Blue hDectin-1a cells (human, UniProt Q9BXN2 1-247)
T1 sequence: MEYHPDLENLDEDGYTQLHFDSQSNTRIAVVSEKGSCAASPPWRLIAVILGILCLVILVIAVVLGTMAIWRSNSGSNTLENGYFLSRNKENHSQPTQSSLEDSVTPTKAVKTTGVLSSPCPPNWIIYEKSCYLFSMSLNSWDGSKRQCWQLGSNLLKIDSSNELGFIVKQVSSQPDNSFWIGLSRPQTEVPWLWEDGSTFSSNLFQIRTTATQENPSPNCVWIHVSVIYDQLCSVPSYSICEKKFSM

T2: human Trop-2 expressed on cells (A-431, NCI-N87, SKBR3, CHO-K1-hTrop2) (human, UniProt P09758 27-323)
T2 sequence: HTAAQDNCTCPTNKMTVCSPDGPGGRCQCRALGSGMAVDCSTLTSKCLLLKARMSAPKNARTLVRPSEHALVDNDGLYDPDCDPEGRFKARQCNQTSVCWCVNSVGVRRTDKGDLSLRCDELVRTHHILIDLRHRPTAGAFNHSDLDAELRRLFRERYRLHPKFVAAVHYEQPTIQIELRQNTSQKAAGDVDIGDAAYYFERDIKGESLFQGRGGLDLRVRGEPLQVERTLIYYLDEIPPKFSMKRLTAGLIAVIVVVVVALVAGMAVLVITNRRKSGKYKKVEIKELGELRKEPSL

T3: Human Trop-2 ECD protein (human, UniProt P09758 27-274)
T3 construct: also called hTrop-2 ECD; not shown: HIS tag (captured on the biosensor via anti-HIS Tag)
T3 sequence: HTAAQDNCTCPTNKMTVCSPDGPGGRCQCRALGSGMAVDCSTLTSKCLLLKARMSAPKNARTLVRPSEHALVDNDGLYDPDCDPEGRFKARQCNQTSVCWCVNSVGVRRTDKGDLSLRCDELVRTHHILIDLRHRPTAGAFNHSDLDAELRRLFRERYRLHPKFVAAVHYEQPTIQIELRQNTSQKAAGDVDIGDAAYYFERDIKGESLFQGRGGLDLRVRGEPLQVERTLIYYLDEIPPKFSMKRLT

B1: 2M24 × Trop-2 clone A hG1 (bispecific antibody, V domains shown)
VH 1: QVQLVQSGAEVKKPGASVKVSCKSSGYTFTDYYIHWVRQAPGQGLEWMGWINPNSGDTNYAQKFQGRITMTRDTSISTAYLELSRLRSDDTAVFYCARNSGSYSFGYWGQGTLVTVSS
VL 1: DIQMTQSPSSVSASVGDRVTITCRASQGISSWLAWYQQKPGKAPKLLIFGASSLQSGVPSRFSGSGSGTDFTLTVSSLQPEDFATYYCQQAYSFPFTFGPGTKVDIE
VH 2: QVQLQQSGSELKKPGASVKVSCKASGYTFTNYGMNWVKQAPGQGLKWMGWINTYTGEPTYTDDFKGRFAFSLDTSVSTAYLQISSLKADDTAVYFCARGGFGSSYWYFDVWGQGSLVTVSS
VL 2: DIQLTQSPSSLSASVGDRVSITCKASQDVSIAVAWYQQKPGKAPKLLIYSASYRYTGVPDRFSGSGSGTDFTLTISSLQPEDFAVYYCQQHYITPLTFGAGTKVEIK
notes: also called anti-Dectin-1 x anti-Trop-2 bispecific antibody
B2: 2M24 × Trop-2 clone C hG1 (bispecific antibody, V domains shown)
VH 1: B1 VH 1
VL 1: B1 VL 1
VH 2: QVQLVQSGSELKKPGASVKLSCKASGYTFTSYGMNWVRQAPGQGLEWMGWINTNTGNPTYAQGFTGRFVFSLDTSVSTAYLQISSLKAEDTAVYYCARGYNWNDGDFDYWGQGTLVTVSS
VL 2: AIQMTQSPSSLSPSVGDRVTITCRASQGIRNDLGWYQQKPGKAPKLLIFAASSLQSGVPSRFSGSGSGTDFTLTISNLQPEDFATYYCLQNYNYPLTFGGGTKVEIK
notes: Full chains appear only in embodiments and are not tied to the tested molecule; also called anti-Dectin-1 x anti-Trop-2 bispecific antibody; DR02B.77
B3: 2M24 × Trop-2 clone B hG1 (bispecific antibody, V domains shown)
VH 1: B1 VH 1
VL 1: B1 VL 1
VH 2: QVQLQESGPGLVKPSGTLSLTCAVSGGSISSSNWWSWVRQPPGKGLEWIGEIYHDGSTDYFPSLKSRVTISVDKSKNQFSLKLSSVTAADTAVYYCARDNWGFDYWGQGTLVTVSS
VL 2: DIVLTQSPGTLSLSPGERATLSCRASQSVSSSYLAWYQQKPGQAPRLLISGASSRATGIPDRFSGSGSGTDFTLTISRLEPEDFAVYYCQQYGSSHRTFGQGTKVEIK
notes: Full chains appear only in embodiments and are not tied to the tested molecule; also called anti-Dectin-1 x anti-Trop-2 bispecific antibody; DR02B.65
B4: Dectin-1 2M24.124 x Trop-2 clone A hIgG1 (bispecific antibody)
anti-Dectin-1 heavy chain: B1 VH 1 with S24A, I34M, S55E, Q65E, L81M, F94Y, S100T, S102A, Q110C
anti-Dectin-1 light chain: B1 VL 1 with A43C, F49Y, S53D, V75I, S93G, E107K
anti-Trop-2 heavy chain: B1 VH 2
anti-Trop-2 light chain: B1 VL 2
notes: member of group m9; also called 2M24.124xTrop-2 clone A hG1; disulfide-engineered Fab-format bispecific, clone A
B5: Dectin-1 2M24.124 x Trop-2 clone B hIgG1 (bispecific antibody)
anti-Dectin-1 heavy chain: B1 VH 1 with S24A, I34M, S55E, Q65E, L81M, F94Y, S100T, S102A, Q110C
anti-Dectin-1 light chain: B1 VL 1 with A43C, F49Y, S53D, V75I, S93G, E107K
anti-Trop-2 heavy chain: B3 VH 2
anti-Trop-2 light chain: B3 VL 2
notes: member of group m9; also called 2M24.124xTrop-2 clone B hG1; disulfide-engineered Fab-format bispecific, clone B

Key:
[1] = biological target: T1, human Dectin-1 isoform A on HEK-Blue …; test: cell-based or functional assay
[2] = biological target: T2, human Trop-2 expressed on cells (A-431, …); test: cell-based or functional assay
[3] = biological target: T2, human Trop-2 expressed on cells (A-431, …); test: flow cytometry on A-431 cells, fluorescent anti-human secondary antibody
Procedure: (§1) FIGS. 2A-2D show binding assays in which cells expressing human Trop-2 were incubated with anti-Dectin-1 x anti-Trop-2 bispecific antibodies with human IgG1 Fc (as indicated) or isotype control, and binding was measured by flow cytometry using a fluorescently labeled anti-human secondary antibody. Shown are binding of the indicated antibodies to human epidermoid carcinoma A-431 cells (FIG. 2A), human gastric carcinoma NCI-N87 cells (FIG. 2B), human breast cancer SKBR3 cells (FIG. 2C), or CHO-K1 cells expressing human Trop-2 (FIG. 2D).
(§2) Human cancer cell lines and CHO cells expressing human Trop-2 (CHO-K1-hTrop2 cells) were incubated with the anti-Dectin-1 x anti-Trop-2 bispecific antibodies, Trop-2 clones 15, 45, 76, 77, 63, 64, 65 and 123, or the hIgG1 isotype, followed by a fluorescent anti-human secondary antibody. The primary antibodies were used in an 8-point serial dose titration starting at 300 or 100 nM and diluted 1 to 3.

[4] = biological target: T2, human Trop-2 expressed on cells (A-431, …); test: flow cytometry on SKBR3 cells, fluorescent anti-human secondary antibody
Procedure: as §1, §2

[5] = biological target: T2, human Trop-2 expressed on cells (A-431, …); test: flow cytometry on NCI-N87 cells, fluorescent anti-human secondary antibody
Procedure: as §1, §2

[6] = biological target: T2, human Trop-2 expressed on cells (A-431, …); test: flow cytometry on CHO-K1-hTrop2 cells, fluorescent anti-human secondary antibody
Procedure: as §1, §2

Human Trop-2 ECD protein = biological target: T3, Human Trop-2 ECD protein; test: BLI, hTrop-2 ECD captured via anti-HIS Tag, bispecific antibody in solution (monovalent)
Procedure: Monovalent binding affinity was measured by biosensor (BLI). Human Trop-2 ECD protein was captured on biosensor via anti-HIS Tag. On and off rate binding was measured against bispecific antibodies with 1 arm binding to hTrop2 at varying concentrations. On rate and off rate measurements were fitted to generated KD values.
Monovalent binding affinity of each anti-Dectin-1 x anti-Trop-2 bispecific antibody to the human Trop-2 ECD was also measured by biosensor (BLI).

[7] = biological target: T1, human Dectin-1 isoform A on HEK-Blue …; test: cell-based or functional assay; remark: listed apart in the source
[8] = biological target: T2, human Trop-2 expressed on cells (A-431, …); test: flow cytometry on CHO-K1 cells expressing hTrop-2 (sheet title: Binding to Chok1 hTrop2)
[9] = biological target: T1, human Dectin-1 isoform A on HEK-Blue …; test: flow cytometry on HEK cells expressing hDectin-1 (sheet title: Binding to HEK Blue Dectin 1a cells)

Row | Binder | Dectin-1 pathway activation (SEAP secretion), HEK-Blue hDectin-1a cells in the presence of A-431 cells, EC50 [1] [µg/mL] | Dectin-1 pathway activation (SEAP secretion), HEK-Blue hDectin-1a cells in the presence of CHO-K1-hTrop2 cells, EC50 [1] [µg/mL] | Dectin-1 pathway activation (SEAP secretion), HEK-Blue hDectin-1a cells in the presence of NCI-N87 cells, EC50 [1] [µg/mL] | Dectin-1 pathway activation (SEAP secretion), HEK-Blue hDectin-1a cells in the presence of SKBR3 cells, EC50 [1] [µg/mL] | Induction of phagocytosis in vitro of A-431 cells by human macrophages, EC50 [2] [nM] | Induction of phagocytosis in vitro of NCI-N87 cells by human macrophages, EC50 [2] [nM] | Induction of phagocytosis in vitro of SKBR3 cells by human macrophages, EC50 [2] [nM] | EC50 [3] [nM] | EC50 [4] [nM] | EC50 [5] [nM] | EC50 [6] [nM] | Kd (Human Trop-2 ECD protein) [nM] | koff (Human Trop-2 ECD protein) [s⁻¹] | kon (Human Trop-2 ECD protein) [M⁻¹ s⁻¹] | EC50 of SEAP secretion by the hDectin-1 reporter cells (hDec1 Reporter Assay; the Trop-2-expressing cell line is not named) [7] [nM] | EC50 (read off the curve) [8] [nM] | EC50 (read off the curve) [9] [nM]
1 | B1 | 0.05 | 0.06 | 0.04 | 0.04 | 0.31 | 0.2 | 0.507 | 6.12 | 18.5 | 11.7 | 3.78 | 4.12 | 0.000891 | 217000 |  |  | 
2 | B2 | 0.08 | 0.05 | 0.06 | 0.05 | 0.45 | 0.132 | 0.319 | 53.2 | 28 | 39.5 | 7.25 | 12.9 | 0.00181 | 140000 |  |  | 
3 | B3 | 0.04 | 0.07 | 0.03 | 0.04 | 0.34 | 1.12 | 0.269 | 7.56 | 24.2 | 17.9 | 4.32 | 9.55 | 0.000475 | 49700 |  |  | 
4 | B4 |  |  |  |  |  |  |  |  |  |  |  |  |  |  | 0.62 | ~5 | ~0.7
5 | B5 |  |  |  |  |  |  |  |  |  |  |  |  |  |  | 0.61 | ~7 | ~0.7
